Assays:
NCYM [1] = molecular target: T1, NCYM (Homo sapiens, UniProt P40205 1-109); experiment: BLI; BLI: 25 C, NCYM 25-400 nM, buffer not stated (selection buffer: 40 mM HEPES pH 7.5, 125 mM NaCl, 5 mM KCl, 1 mM MgCl2, 0.01% Tween 20); AFM: 20 mM Tris-HCl pH 7.4, 10 mM MgCl2, 1 mM EDTA, 25 C, 2 h, NCYM 100 nM, aptamer frame 10 nM; SAXS: 293 K; conditions: protein: recombinant, tags: N-terminal GST tag cleaved, 8 vector residues left (117 aa; stated for SAXS), label: 5'-biotin (BLI)
T1 sequence: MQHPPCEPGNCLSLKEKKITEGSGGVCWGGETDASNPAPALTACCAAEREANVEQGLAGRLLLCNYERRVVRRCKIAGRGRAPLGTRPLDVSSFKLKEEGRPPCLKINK

NCYM [2] = molecular target: T1, NCYM; experiment: BLI; text gives 299 nM as top of range; BLI: 25 C, NCYM 25-400 nM, buffer not stated (selection buffer: 40 mM HEPES pH 7.5, 125 mM NaCl, 5 mM KCl, 1 mM MgCl2, 0.01% Tween 20); AFM: 20 mM Tris-HCl pH 7.4, 10 mM MgCl2, 1 mM EDTA, 25 C, 2 h, NCYM 100 nM, aptamer frame 10 nM; SAXS: 293 K; conditions: protein: recombinant; tags: N-terminal GST tag cleaved, 8 vector residues left (117 aa; stated for SAXS); label: 5'-biotin (BLI)

B1: aptamer No. 3 (ssDNA)
DNA: GGAATGTGGTCCCTCGCAATAAATCGGGCGTTGTGGAGGGGGCGGTGGGTGGGGGGAAATGAGCCCTTTGACCCTGTAC
- Kd (NCYM [1]): 53.9 ± 1.06 nM

B2: aptamer No. 2 (ssDNA)
DNA: GGAATGTGGTCCCTCGCAATAAATCGGGGAGGGAGGGTGGGGGCGGTGGGAGGTGGAAATGAGCCCTTTGACCCTGTAC
- Kd (NCYM [2]): 298 ± 88.7 nM

B3: aptamer No. 1 (ssDNA)
DNA: GGAATGTGGTCCCTCGCAATAAATCTATGTACGTTATTCCCCTTTGACCAATGCTGAAATGAGCCCTTTGACCCTGTAC
- Kd (NCYM [1]; stem-loops predicted by RNAfold, dimer in solution (SAXS)): 176 ± 29.1 nM
